Laboratory results taken from patent publication US20250129169A1 (Stanford University, published 2025).

T1: Human γC ECD (human, UniProt P31785 23-262, biotinylated (site not stated))
T1 construct: extracellular domain; Biotinylated and held on a streptavidin chip for SPR; also called common gamma; biotinylated human γC ECD
T1 sequence (looked up): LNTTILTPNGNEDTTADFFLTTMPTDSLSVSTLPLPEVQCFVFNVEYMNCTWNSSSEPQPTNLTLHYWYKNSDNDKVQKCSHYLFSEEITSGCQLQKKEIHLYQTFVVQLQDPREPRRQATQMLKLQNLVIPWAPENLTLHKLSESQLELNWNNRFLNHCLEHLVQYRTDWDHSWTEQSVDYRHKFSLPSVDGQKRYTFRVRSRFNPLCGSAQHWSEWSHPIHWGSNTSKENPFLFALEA

T2: Human IL-2Rβ ECD (human, UniProt P14784 27-240, biotinylated (site not stated))
T2 construct: extracellular domain; Biotinylated and held on a streptavidin chip for SPR; also called biotinylated human IL-2Rβ ECD
T2 sequence (looked up): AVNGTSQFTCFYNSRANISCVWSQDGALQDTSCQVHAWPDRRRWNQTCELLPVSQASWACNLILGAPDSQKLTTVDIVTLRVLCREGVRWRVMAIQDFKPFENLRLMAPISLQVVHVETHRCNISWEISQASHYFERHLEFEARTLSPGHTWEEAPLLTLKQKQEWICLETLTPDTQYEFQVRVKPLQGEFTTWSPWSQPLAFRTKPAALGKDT

T3: human IL-10Rβ ECD (human, UniProt Q08334 20-220)
T3 construct: extracellular domain; Immobilized for SPR under the same conditions as for the IL-2 specific VHHs
T3 sequence (looked up): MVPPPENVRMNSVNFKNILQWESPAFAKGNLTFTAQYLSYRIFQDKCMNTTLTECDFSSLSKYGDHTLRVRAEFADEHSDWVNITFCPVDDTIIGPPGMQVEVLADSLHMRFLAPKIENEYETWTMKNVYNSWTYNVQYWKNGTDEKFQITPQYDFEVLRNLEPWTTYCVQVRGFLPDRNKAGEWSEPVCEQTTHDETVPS

B1: γ scFv2 (P2B9) (scFv)
scFv (VH-linker-VL): QVQLQESGPGLVKPSETLSLTCTVSGGSISSSSYYWGWIRQPPGKGLEWIGSIYYSGSTYYNPSLKSRVTISVDTSKNQFSLKLSSVTAADTAVYYCAGDILTGYALDYWGQGTLVTVSSGGGGSGGGGSGGGGSSYELTQPPSMSVSPGQTARITCSGDALPKQFAFWYQQKPGQAPVLVIYKDTERPSGIPERFSGSSSGTTVTLTITGVQAEDEADYYCQSPDSSGTVEVFGGGTKLTVL
notes: also called γc-scFv2 (P2B9)
B2: 2Rβ-VHH6 (VHH)
VHH: QVQLQESGGGSVQAGGSLRLSCAASSYTISSVCMGWFRQAPGKEREGVAGIAPDGSTGYGDSVKGRFTISKDNAKNTLYLQMNSLKPEDTAMYYCAAASPGRCFLPRTALEPALYYNWGQGTQVTVSS
notes: also called IL-2Rβ-VHH6
B3: 2Rβ-VHH1 (VHH)
VHH: QVQLQESGGGSVQAGGSLRLSCVTSGYTYSSANMAWFRQAPGKEREGVAIITPSGRATTYADSVKGRFTISRDNAANTLYLQMNSLKPEDTAMYYCAADTPPYSGLWYAERTYNYWGQGTQVTVSS
notes: also called IL-2Rβ-specific VHH clone 1
B4: 2Rβ-VHH3 (VHH)
VHH: QVQLQESGGGSVQAGGSLRLSCTASGFTFDDEDMGWYRQAPGNECELVSSIGSLGRRYYADSVKDRFAISQDNAKNTVYLQMNSLKPEDTAVYYCAATKGGSWLDSILASCQGAFGYWGQGTQVTVSS
B5: γc-VHH6 (VHH)
VHH: QVQLQESGGGSVQAGGSLRLSCAASGYTYRDYYMGWFRQAPGREREGVASIYTRGSREGSTRYSSSVEGRFTITLDTAKNTLYLQMNSLKPEDTAMYYCAADDRTWLPRVQLGGPRENEYNYWGQGTQVTVSS
notes: also called γC nanobody clone 6
B6: 10Rβ-VHH5 (VHH)
VHH: QVQLQESGGGSVQAGGSLRLSCAASGYTYSSYCMGWFRQAPGKEREGVAAIDSDGSTSYADSVKGRFTISKDNAKNTLYLQMNSLKPEDTAMYYCAAEPWCTSQGRGRESAEFGYWGQGTQVTVSS
notes: member of the group m13; also called VHH5 (IL-10Rβ VHH)
B7: 10Rβ-VHH4 (VHH)
VHH: QVQLQESGGGSVQAGGSLRLSCAASGYTYSSYCMGWFRQASGKEREGVATIDSDGSTRYADSVKGRFTISKDNAKNTLYLQMNSLKPEDTAMYYCAADLADCAPSIYSDYDVAHWGQGTQVTVSS
notes: member of the group m13; also called VHH4 (IL-10Rβ VHH)
B8: γc-VHH4 (VHH)
VHH: QVQLQESGGGSVQAGGSLRLSCTASGFTFNEANHMGWYRQAPGNECELVSTISSDGTTYYPDSVKGRFTISQDNAKKTAFLQMNSLKPEDTAVYYCAADQSRRGSLCLGQGTQVTVSS
notes: also called γC nanobody clone 4
B9: γc-VHH3 (VHH)
VHH: QVQLQESGGGSVQAGGSLRLSCAASGYTYSKNWYMGWFRQTPGKEREGVAVIAYDDWPTYADSVKGRFTISKDNTKNTLYLQMNSLKPEDTAMYYCAARQLGGDYCYFPNLSRFCYNYWGQGTQVTVSS
notes: also called γC nanobody clone 3
B10: 2Rβ-VHH4 (VHH)
VHH: QVQLQESGGGSVQAGGSLRLSCAASGSTSCSSVMRWYRQAPGKEREFVSSINSDRRTVYADSVKGRFTISQDNAKSTLYLQMNSLKAEDTATYYCQRELYGDSWCQGNYWGQGTQVTVSS

Experiments:
Human γC ECD [1] = molecular target: T1, Human γC ECD; experiment: drawn table of affinities; the scFv value is derived from patent US20160367664A1 (Wang et al., 2016), not measured in this filing
Human IL-2Rβ ECD [2] = molecular target: T2, Human IL-2Rβ ECD; experiment: SPR; biotinylated human IL-2Rβ ECD on streptavidin chip, VHH as analyte; KD from fit to steady-state responses [Cont.]
Experimental: (§1) FIGS. 2A-2H show data on SPR validation of IL-2Rβ- and γc-VHHs and agonist screening in YT-1 cells. (A) Biotinylated human IL-2Rβ ECD was immobilized on a streptavidin (SA) sensor chip, and varying concentrations of IL-2Rβ VHH were applied to determine binding parameters using SPR. Sensorgrams are shown on the left, and steady state binding is plotted on the right. Binding affinities (KD) were determined by fitting to steady state response values. (B) Biotinylated human γC ECD was immobilized on a SA chip, and varying concentrations of γc VHH were flowed over the chip to determine binding. […] (C) Steady-state binding affinities between VHH/scFv and IL-2R, as determined by SPR. Values for scFv affinities are derived from patent US20160367664A1 (Wang et al., 2016). (D) Table of pSTAT5 Eₘₐₓ values for the indicated VHH pairings. (E) Tuning IL-2 activity via generation of acid-base VHH zipper pairings. (F) Tuning IL-2 activity via generation of 2:1 β:γc or γc:β stoichiometries. VHH binding modules are linked together in a tripartite (β-γc-β or γc-β-γc) manner. Graph axes are represented as in (E). (G) Dose-response relationship of pSTAT5 geometric mean flurorescence intensities (gMFI) of selected agonists. (H) Corresponding histograms showing STAT5 activity in YT-1 cells treated with human IL-2 vs. IL-2 surrogate agonists at saturating concentration.

Human IL-2Rβ ECD [3] = molecular target: T2, Human IL-2Rβ ECD; experiment: SPR, steady-state binding affinity (drawn table)
Experimental: as §1

Human γC ECD [4] = molecular target: T1, Human γC ECD; experiment: SPR; biotinylated human γc ECD on streptavidin chip, VHH as analyte; KD from fit to steady-state responses [Cont.]
Experimental: as §1

Human γC ECD [5] = molecular target: T1, Human γC ECD; experiment: SPR, steady-state binding affinity (drawn table)
Experimental: as §1

human IL-10Rβ ECD = molecular target: T3, human IL-10Rβ ECD; experiment: SPR, kinetic fit, immobilized human IL-10Rβ ECD
Experimental: (A) SPR sensorgrams displaying dose-dependent binding of IL-10Rβ VHHs to immobilized human IL-10Rβ ECD. SPR experiments were performed using the same conditions as for IL-2 specific VHHs. Binding constants were determined from kinetic fitting and summarized in (B).

Binder	Kd (Human IL-2Rβ ECD [2]) [nM]	Kd (Human IL-2Rβ ECD [3]) [nM]	Kd (Human γC ECD [4]) [nM]	Kd (Human γC ECD [5]) [nM]	other results
B1	–	–	–	–	Kd (Human γC ECD [1]): 79 nM
B2	25	25	–	–	–
B3	10.9	11	–	–	–
B4	20.2	20	–	–	–
B5	–	–	68.6	69	–
B6	–	–	–	–	Kd (human IL-10Rβ ECD): 1.7 nM
B7	–	–	–	–	Kd (human IL-10Rβ ECD): 2.2 nM
B8	–	–	19.7	20	–
B9	–	–	6.7	7	–
B10	123	123	–	–	–
